Data on 3 molecules can be found in PMC8241838 (2021).

Test in all cases: FACS
For orientation: In flow cytometry, cells or beads pass a laser one at a time.

The target of experiment [1] is α6β1 integrin on Expi293F cells, α6 E219A (human, UniProt P05556 21-798).
The target of experiment [2] is α6β1 integrin on Expi293F cells, α6 R157A (human, UniProt P05556 21-798).
Experiment [3] concerns the target α6β1 integrin on Expi293F cells, α6 E221A (human, UniProt P05556 21-798).
Experiment [4] has as its target α6β1 integrin on Expi293F cells, α6 D205A (human, UniProt P05556 21-798).
The target in experiment [5] is α6β1 integrin on Expi293F cells, α6 D153A (human, UniProt P05556 21-798).
Chain of α6β1 integrin on Expi293F cells, α6 D153A (chain, as listed by the source D153A, chain 1 of 2): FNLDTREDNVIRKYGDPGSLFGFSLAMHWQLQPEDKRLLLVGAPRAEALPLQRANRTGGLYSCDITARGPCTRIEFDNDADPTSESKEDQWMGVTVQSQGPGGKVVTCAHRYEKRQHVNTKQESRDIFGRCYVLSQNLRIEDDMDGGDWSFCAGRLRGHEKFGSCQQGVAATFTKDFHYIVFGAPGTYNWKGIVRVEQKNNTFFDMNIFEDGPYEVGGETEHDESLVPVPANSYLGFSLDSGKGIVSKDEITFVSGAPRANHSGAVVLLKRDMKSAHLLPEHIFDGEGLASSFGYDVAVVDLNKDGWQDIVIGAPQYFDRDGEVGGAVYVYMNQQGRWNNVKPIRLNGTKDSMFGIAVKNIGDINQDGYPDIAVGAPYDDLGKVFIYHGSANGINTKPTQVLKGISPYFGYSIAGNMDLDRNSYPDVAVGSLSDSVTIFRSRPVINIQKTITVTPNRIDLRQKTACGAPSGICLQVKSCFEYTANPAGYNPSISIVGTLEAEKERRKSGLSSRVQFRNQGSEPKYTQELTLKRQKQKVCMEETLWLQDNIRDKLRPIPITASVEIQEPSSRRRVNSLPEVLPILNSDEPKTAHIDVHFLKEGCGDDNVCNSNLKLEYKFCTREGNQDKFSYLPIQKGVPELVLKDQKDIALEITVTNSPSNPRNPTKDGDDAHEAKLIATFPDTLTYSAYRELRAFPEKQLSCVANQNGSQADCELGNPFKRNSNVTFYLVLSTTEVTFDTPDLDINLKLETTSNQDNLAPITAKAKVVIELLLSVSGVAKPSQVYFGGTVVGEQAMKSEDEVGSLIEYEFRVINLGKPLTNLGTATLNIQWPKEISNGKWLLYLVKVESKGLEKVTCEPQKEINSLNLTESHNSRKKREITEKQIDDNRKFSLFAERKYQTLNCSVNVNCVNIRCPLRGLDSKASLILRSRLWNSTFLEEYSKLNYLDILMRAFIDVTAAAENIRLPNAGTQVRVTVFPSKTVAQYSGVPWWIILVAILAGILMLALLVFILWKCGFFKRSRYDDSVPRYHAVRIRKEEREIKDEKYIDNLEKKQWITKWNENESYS
Chain of α6β1 integrin on Expi293F cells, α6 D153A (P05556 21-798, chain 2 of 2): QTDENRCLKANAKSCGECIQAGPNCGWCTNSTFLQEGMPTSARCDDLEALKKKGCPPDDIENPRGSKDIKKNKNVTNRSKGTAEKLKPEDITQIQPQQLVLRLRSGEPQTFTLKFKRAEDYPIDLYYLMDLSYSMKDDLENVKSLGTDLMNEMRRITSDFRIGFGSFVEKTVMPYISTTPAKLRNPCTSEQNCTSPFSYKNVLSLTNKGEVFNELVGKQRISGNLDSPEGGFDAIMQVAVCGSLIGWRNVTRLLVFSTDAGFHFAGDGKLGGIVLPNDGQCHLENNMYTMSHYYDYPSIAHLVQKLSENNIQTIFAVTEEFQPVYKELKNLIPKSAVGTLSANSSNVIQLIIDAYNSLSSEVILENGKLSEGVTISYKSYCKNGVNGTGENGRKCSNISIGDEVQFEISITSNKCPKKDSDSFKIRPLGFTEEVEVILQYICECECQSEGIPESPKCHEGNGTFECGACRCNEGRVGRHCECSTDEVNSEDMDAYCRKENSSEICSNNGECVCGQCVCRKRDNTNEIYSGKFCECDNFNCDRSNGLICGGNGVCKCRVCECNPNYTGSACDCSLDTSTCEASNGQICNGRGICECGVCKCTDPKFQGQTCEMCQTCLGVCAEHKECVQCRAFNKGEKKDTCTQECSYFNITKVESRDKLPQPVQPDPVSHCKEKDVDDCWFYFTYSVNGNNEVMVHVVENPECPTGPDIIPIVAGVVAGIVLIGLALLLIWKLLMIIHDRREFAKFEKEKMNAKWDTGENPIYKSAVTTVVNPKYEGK
Experiment [6] deals with human α6β1 integrin transiently expressed on Expi293F cells, wild type (human, UniProt P05556 21-798).
Chain of human α6β1 integrin transiently expressed on Expi293F cells, wild type (chain, as listed by the source, chain 1 of 2): as the sequence (chain, as listed by the source D153A, chain 1 of 2) above, with A153D counted along it
Chain of human α6β1 integrin transiently expressed on Expi293F cells, wild type (P05556 21-798, chain 2 of 2): as the sequence (P05556 21-798, chain 2 of 2) above
The target of experiment [7] is α6β1 integrin on Expi293F cells, α6 X1-ΔC (human, UniProt P05556 21-798).
Chain of α6β1 integrin on Expi293F cells, α6 X1-ΔC (P05556 whole entry, looked up, stated change not applied): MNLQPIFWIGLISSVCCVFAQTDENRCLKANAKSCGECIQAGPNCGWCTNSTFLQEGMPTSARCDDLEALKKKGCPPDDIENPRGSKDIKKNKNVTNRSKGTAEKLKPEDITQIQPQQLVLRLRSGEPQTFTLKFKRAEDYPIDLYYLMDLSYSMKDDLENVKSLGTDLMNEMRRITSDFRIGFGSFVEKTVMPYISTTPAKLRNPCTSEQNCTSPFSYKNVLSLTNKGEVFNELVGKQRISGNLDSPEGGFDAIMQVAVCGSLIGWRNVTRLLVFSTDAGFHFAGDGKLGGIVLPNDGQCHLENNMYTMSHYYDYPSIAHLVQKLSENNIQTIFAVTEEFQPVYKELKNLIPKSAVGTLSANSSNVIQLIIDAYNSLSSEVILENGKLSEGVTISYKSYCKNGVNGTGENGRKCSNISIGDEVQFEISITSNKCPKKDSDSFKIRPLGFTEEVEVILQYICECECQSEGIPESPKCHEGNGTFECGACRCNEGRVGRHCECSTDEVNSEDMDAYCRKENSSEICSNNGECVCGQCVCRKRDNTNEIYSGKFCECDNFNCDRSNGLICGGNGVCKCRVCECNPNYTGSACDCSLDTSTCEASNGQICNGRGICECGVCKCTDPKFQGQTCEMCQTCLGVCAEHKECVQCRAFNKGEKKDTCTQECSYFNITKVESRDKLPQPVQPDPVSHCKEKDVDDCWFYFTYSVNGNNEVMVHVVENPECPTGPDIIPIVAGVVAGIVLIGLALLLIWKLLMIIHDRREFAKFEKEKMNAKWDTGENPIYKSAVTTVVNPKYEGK

Chain of α6β1 integrin on Expi293F cells, α6 E221A (chain, as listed by the source E221A, chain 1 of 2): as the sequence (chain, as listed by the source D153A, chain 1 of 2) above, with A153D, E221A counted along it
Chain of α6β1 integrin on Expi293F cells, α6 E221A (P05556 21-798, chain 2 of 2): as the sequence (P05556 21-798, chain 2 of 2) above
Chain of α6β1 integrin on Expi293F cells, α6 D205A (chain, as listed by the source D205A, chain 1 of 2): as the sequence (chain, as listed by the source D153A, chain 1 of 2) above, with A153D, D205A counted along it
Chain of α6β1 integrin on Expi293F cells, α6 D205A (P05556 21-798, chain 2 of 2): as the sequence (P05556 21-798, chain 2 of 2) above
Chain of α6β1 integrin on Expi293F cells, α6 E219A (chain, as listed by the source E219A, chain 1 of 2): as the sequence (chain, as listed by the source D153A, chain 1 of 2) above, with A153D, E219A counted along it
Chain of α6β1 integrin on Expi293F cells, α6 E219A (P05556 21-798, chain 2 of 2): as the sequence (P05556 21-798, chain 2 of 2) above
Chain of α6β1 integrin on Expi293F cells, α6 R157A (chain, as listed by the source R157A, chain 1 of 2): as the sequence (chain, as listed by the source D153A, chain 1 of 2) above, with A153D, R157A counted along it
Chain of α6β1 integrin on Expi293F cells, α6 R157A (P05556 21-798, chain 2 of 2): as the sequence (P05556 21-798, chain 2 of 2) above

B1: trimeric fusion protein PA-sfGFP-tLM511 (complex)
chain 1: ENVERWQGQYEGLRGQDLGQAVLDAGHSVSTLEKTLPQLLAKLSILENRGVHNASLALSASIGRVRELIAQARGAASKVKVPMKFNGRSGVQLRTPRDLADLAAYTALKFYLQGPEPEPGQGTEDRFVMYMGSRQATGDYMGVSLRDKKVHWVYQLGEAGPAVLSIDEDIGEQFAAVSLDRTLQFGHMSVTVERQMIQETKGDTVAPGAEGLLNLRPDDFVFYVGGYPSTFTPPPLLRFPGYRGCIEMDTLNEEVVSLYNFERTFQLDTAVDRPCARSKSTGDPWLTDGSYLDGTGFARISFDSQISTTKRFEQELRLVSYSGVLFFLKQQSQFLCLAVQEGSLVLLYDFGAGLKKAVPLQPPPPLTSASKAIQVFLLGGSRKRVLVRVERATVYSVEQDNDLELADAYYLGGVPPDQLPPSLRRLFPTGGSVRGCVKGIKALGKYVDLKRLNTTGVSAGCTADLLVGRAMTFHGHGFLRLALSNVAPLTGNVYSGFGFHSAQDSALLYYRASPDGLCQVSLQQGRVSLQLLRTEVKTQAGFADGAPHYVAFYSNATGVWLYVDDQLQQMKPHRGPPPELQPQPEGPPRLLLGGLPESGTIYNFSGCISNVFVQRLLGPQRVFDLQQNLGSVNVSTGCAPALQAQTPGLGPRGLQATARKASRRSRQPARHPA
chain 2: not shown
chain 3: DTVDLNKLNEIEGTLNKAKDEMKVSDLDRKVSDLENEAKKQEAAIMDYNRDIEEIMKDIRNLEDIRKTLPSGCFNTPSIEKP
modifications: Mn2+; A cytoplasmic form assumed
As for B1, the Kd is 134 nM in experiment [1]; 28.8 nM in experiment [2]; 32.5 nM in experiment [3]; 60.1 nM in experiment [4]; 45.2 nM in experiment [5].

B2: trimeric fusion protein PA-sfGFP-tLM511 (complex)
chain 1: B1 chain 1
chain 2: not shown
chain 3: B1 chain 3
modifications: assayed with 0.5 mM Mn2+; X1 variant without the 39-residue X2 insert (P23229 displayed = X1X2A; mature 988 = 1050 gives offset 62 after X2); A/B cytoplasmic form not given, A taken; alpha6 may be furin-cleaved; signal peptides removed
For the molecule B2, the affinity in experiment [6], expressed as Kd, was 12.5 nM.

B3: trimeric fusion protein PA-sfGFP-tLM511 (complex)
chain 1: B1 chain 1
chain 2: not shown
chain 3: B1 chain 3
In experiment [7], B3 yielded a Kd of 127 nM.

The term Kd denotes a measure of binding affinity in units of concentration. Lower therefore signals a tighter complex.
